Test results: publication PMC11023060

Molecular target: T1, CbAgoM (delA2;D463R;Y473A;K477C;T491H;T494S;K520G;A542D;A612D;del738-749)
T1 chain: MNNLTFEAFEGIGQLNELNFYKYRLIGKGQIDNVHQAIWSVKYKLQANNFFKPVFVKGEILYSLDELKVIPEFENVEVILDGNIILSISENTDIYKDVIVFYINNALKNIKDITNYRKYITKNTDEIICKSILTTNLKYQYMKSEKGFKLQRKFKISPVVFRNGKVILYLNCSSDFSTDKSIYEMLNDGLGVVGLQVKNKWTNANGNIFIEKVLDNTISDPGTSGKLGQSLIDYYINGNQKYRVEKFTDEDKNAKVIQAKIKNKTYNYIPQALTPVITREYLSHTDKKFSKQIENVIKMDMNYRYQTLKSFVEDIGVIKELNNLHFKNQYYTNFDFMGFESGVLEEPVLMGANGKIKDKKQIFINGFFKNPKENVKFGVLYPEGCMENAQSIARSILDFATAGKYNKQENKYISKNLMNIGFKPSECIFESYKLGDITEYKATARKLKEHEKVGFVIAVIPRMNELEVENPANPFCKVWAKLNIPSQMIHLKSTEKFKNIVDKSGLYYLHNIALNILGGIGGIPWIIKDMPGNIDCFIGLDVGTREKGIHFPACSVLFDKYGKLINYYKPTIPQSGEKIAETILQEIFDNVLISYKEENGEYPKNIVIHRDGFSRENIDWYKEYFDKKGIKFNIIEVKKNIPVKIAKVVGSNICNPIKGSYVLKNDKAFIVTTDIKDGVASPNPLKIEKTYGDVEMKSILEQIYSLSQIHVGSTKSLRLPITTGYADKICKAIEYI
Experiment: fluorescence polarization

TGAGGTAGTAGGTTGTATAGT (ssDNA, 5'-phosphate) [gDNA 21 nt]
binding result: binds
